What was measured:
human IL-8 [1] = target: T1, human IL-8 (human, UniProt P10145 23-99, limits assumed); test: SPR Biacore T200, Protein A/G capture, pH 7.4, 40C;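 also: antibodies captured via Protein A/G, which was amine-coupled to a CM4 sensor chip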
T1 construct: also called hIL-8; hIL8
Experimental: (§1) An appropriate amount of Protein A/G (PIERCE) was immobilized onto the Sensor chip CM4 (GE Healthcare) by the amine coupling method and the antibodies of interest were captured. […] To regenerate the sensor chip, 25 mM NaOH and 10 mM glycine-HCl (pH 1.5) were used. […] The BIACORE T200 Evaluation Software (GE Healthcare) was used to calculate each parameter.

human IL-8 [2] = target: T1, human IL-8; test: SPR Biacore T200, Protein A/G capture, pH 5.8, 37C;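 also: antibodies captured by Protein A/G amine-coupled onto a CM4 sensor chip, with kinetic parameters derived using Biacore T200 Evaluation Software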
Experimental: as §1

human FcRn = target: T2, human FcRn (human, UniProt P55899 24-290; P61769 21-119, limits assumed); test: SPR Biacore T100, Ab captured on Protein L, FcRn analyte, pH 6.0, 25C
T2 construct: also called hFcRn
Experimental: Antibodies containing VH3-IgG1m or an above-mentioned variant as the heavy chain and L(WT) (SEQ ID NO:1) as the light chain were produced by the method of Reference Example 2, and the binding activity toward human FcRn was evaluated as follows.
Kinetic analyses of human FcRn and each of the antibodies were carried out using BIACORE T100 (GE Healthcare). […] For the running buffer, 50 mM sodium phosphate, 150 mM NaCl, and 0.05% (w/v) Tween 20 at pH 6.0 was used, and the respective buffer was also used to dilute FcRn. […] All measurements were carried out at 25° C.

T1 sequence (P10145 23-99 limits assumed): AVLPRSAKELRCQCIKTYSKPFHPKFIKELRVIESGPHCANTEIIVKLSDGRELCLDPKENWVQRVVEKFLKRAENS

Binder | Kd (human IL-8 [1]) [nM] | Kd (human IL-8 [2]) [nM] | koff (human IL-8 [2]) [s⁻¹] | Kd (human FcRn) [nM]
H1037/L0442 (antibody, human IgG1, kappa, name in Kabat numbering, V domains shown, L442 = L395 + S31E) VH: QVQLVESGGGLVQPGGSLRLSCAASGFTFDKYYLSWVRQAPGKGLEWVGLIRNKDNYHHPEYSASVKGRFTISRDDSKNSLYLTMSDLKTEDTAVYYCARENHRYDVELAYWGQGTLVTVSS VL: DIQMTQSPSSLSASVGDRVTITCRASEIIYEYLAWYQQKPGKAPKLLIYKAKTHADGVPSRFSGSGSGTDFTFTISSLQPEDIATYYCKHHFGFPRTFGQGTKVEIKR | 0.13 | 61 | 0.015 | 
H1040/L0395 (antibody, human IgG1, kappa, name in Kabat numbering, V domains shown) VH: QVQLVESGGGLVQPGGSLRLSCAASGFTFSEYYLSWVRQAPGKGLEWVGLIRNKDNHHHPEYSASVKGRFTISRDDSKNSLYLTMSDLKTEDTAVYYCARENHRYDVELAYWGQGTLVTVSS VL: DIQMTQSPSSLSASVGDRVTITCRASEIIYSYLAWYQQKPGKAPKLLIYKAKTHADGVPSRFSGSGSGTDFTFTISSLQPEDIATYYCKHHFGFPRTFGQGTKVEIKR | 0.26 | 240 | 0.046 | 
H1041/L0442 (antibody, human IgG1, kappa, name in Kabat numbering, V domains shown, L442 = L395 + S31E) VH: QVQLVESGGGLVQPGGSLRLSCAASGFTFSEYYLSWVRQAPGKGLEWVGLIRNKDNGYHPEYSASVKGRFTISRDDSKNSLYLTMSDLKTEDTAVYYCARENHRYDVELAYWGQGTLVTVSS VL: DIQMTQSPSSLSASVGDRVTITCRASEIIYEYLAWYQQKPGKAPKLLIYKAKTHADGVPSRFSGSGSGTDFTFTISSLQPEDIATYYCKHHFGFPRTFGQGTKVEIKR | 0.12 | 61 | 0.015 | 
H1047/L0395 (antibody, human IgG1, kappa, name in Kabat numbering, V domains shown) VH: QVQLVESGGGLVQPGGSLRLSCAASGFTFDKYYLSWVRQAPGKGLEWVGLIRNKDNGYTPEYSASVKGRFTISRDDSKNSLYLTMSDLKTEDTAVYYCARENHRYDVELAYWGQGTLVTVSS VL: DIQMTQSPSSLSASVGDRVTITCRASEIIYSYLAWYQQKPGKAPKLLIYKAKTHADGVPSRFSGSGSGTDFTFTISSLQPEDIATYYCKHHFGFPRTFGQGTKVEIKR | 0.095 | 47 | 0.006 | 
H1049/L0442 (antibody, human IgG1, kappa, name in Kabat numbering, V domains shown, L442 = L395 + S31E) VH: QVQLVESGGGLVQPGGSLRLSCAASGFTFDKYYLSWVRQAPGKGLEWVGLIRNKDNYHTPEYSASVKGRFTISRDDSKNSLYLTMSDLKTEDTAVYYCARENHRYDVELAYWGQGTLVTVSS VL: DIQMTQSPSSLSASVGDRVTITCRASEIIYEYLAWYQQKPGKAPKLLIYKAKTHADGVPSRFSGSGSGTDFTFTISSLQPEDIATYYCKHHFGFPRTFGQGTKVEIKR | 0.053 | 33 | 0.0045 | 
VH3-F1168m / L(WT) (antibody, Fc: N434A/Q438R/S440E) heavy: QVQLQESGPGLVKPSETLSLTCAVSGHSISHDHAWSWVRQPPGEGLEWIGFISYSGITNYNPSLQGRVTISRDNSKNTLYLQMNSLRAEDTAVYYCARSLARTTAMDYWGEGTLVTVSSASTKGPSVFPLAPSSKSTSGGTAALGCLVKDYFPEPVTVSWNSGALTSGVHTFPAVLQSSGLYSLSSVVTVPSSSLGTQTYICNVNHKPSNTKVDKKVEPKSCDKTHTCPPCPAPELLGGPSVFLFPPKPKDTLMISRTPEVTCVVVDVSHEDPEVKFNWYVDGVEVHNAKTKPREEQYNSTYRVVSVLTVLHQDWLNGKEYKCKVSNKALPAPIEKTISKAKGQPREPQVYTLPPSREEMTKNQVSLTCLVKGFYPSDIAVEWESNGQPENNYKTTPPVLDSDGSFFLYSKLTVDKSRWQQGNVFSCSVMHEALHAHYTRKELSLSP light: not shown |  |  |  | 410
VH3-F1847m / L(WT) (antibody, Fc: N434A/Y436T/Q438R/S440E) heavy: QVQLQESGPGLVKPSETLSLTCAVSGHSISHDHAWSWVRQPPGEGLEWIGFISYSGITNYNPSLQGRVTISRDNSKNTLYLQMNSLRAEDTAVYYCARSLARTTAMDYWGEGTLVTVSSASTKGPSVFPLAPSSKSTSGGTAALGCLVKDYFPEPVTVSWNSGALTSGVHTFPAVLQSSGLYSLSSVVTVPSSSLGTQTYICNVNHKPSNTKVDKKVEPKSCDKTHTCPPCPAPELLGGPSVFLFPPKPKDTLMISRTPEVTCVVVDVSHEDPEVKFNWYVDGVEVHNAKTKPREEQYNSTYRVVSVLTVLHQDWLNGKEYKCKVSNKALPAPIEKTISKAKGQPREPQVYTLPPSREEMTKNQVSLTCLVKGFYPSDIAVEWESNGQPENNYKTTPPVLDSDGSFFLYSKLTVDKSRWQQGNVFSCSVMHEALHAHTTRKELSLSP light: not shown |  |  |  | 367

Second part, the binder after the results:

Kd (human IL-8 [1]) [nM] | Kd (human IL-8 [2]) [nM] | koff (human IL-8 [2]) [s⁻¹] | Kd (human FcRn) [nM] | Binder
0.094 | 70 | 0.015 |  | H1037/L0395 (antibody, human IgG1, kappa, name in Kabat numbering, V domains shown) VH: QVQLVESGGGLVQPGGSLRLSCAASGFTFDKYYLSWVRQAPGKGLEWVGLIRNKDNYHHPEYSASVKGRFTISRDDSKNSLYLTMSDLKTEDTAVYYCARENHRYDVELAYWGQGTLVTVSS VL: DIQMTQSPSSLSASVGDRVTITCRASEIIYSYLAWYQQKPGKAPKLLIYKAKTHADGVPSRFSGSGSGTDFTFTISSLQPEDIATYYCKHHFGFPRTFGQGTKVEIKR
0.08 | 71 | 0.013 |  | H1041/L0395 (antibody, human IgG1, kappa, name in Kabat numbering, V domains shown) VH: QVQLVESGGGLVQPGGSLRLSCAASGFTFSEYYLSWVRQAPGKGLEWVGLIRNKDNGYHPEYSASVKGRFTISRDDSKNSLYLTMSDLKTEDTAVYYCARENHRYDVELAYWGQGTLVTVSS VL: DIQMTQSPSSLSASVGDRVTITCRASEIIYSYLAWYQQKPGKAPKLLIYKAKTHADGVPSRFSGSGSGTDFTFTISSLQPEDIATYYCKHHFGFPRTFGQGTKVEIKR
0.18 | 160 | 0.012 |  | H1046/L0395 (antibody, human IgG1, kappa, name in Kabat numbering, V domains shown) VH: QVQLVESGGGLVQPGGSLRLSCAASGFTFSEYYLSWVRQAPGKGLEWVGLIRNKDNYHHPEYSASVKGRFTISRDDSKNSLYLTMSDLKTEDTAVYYCARENHRYDVELAYWGQGTLVTVSS VL: DIQMTQSPSSLSASVGDRVTITCRASEIIYSYLAWYQQKPGKAPKLLIYKAKTHADGVPSRFSGSGSGTDFTFTISSLQPEDIATYYCKHHFGFPRTFGQGTKVEIKR
0.025 | 38 | 0.004 |  | H1049/L0395 (antibody, human IgG1, kappa, name in Kabat numbering, V domains shown) VH: QVQLVESGGGLVQPGGSLRLSCAASGFTFDKYYLSWVRQAPGKGLEWVGLIRNKDNYHTPEYSASVKGRFTISRDDSKNSLYLTMSDLKTEDTAVYYCARENHRYDVELAYWGQGTLVTVSS VL: DIQMTQSPSSLSASVGDRVTITCRASEIIYSYLAWYQQKPGKAPKLLIYKAKTHADGVPSRFSGSGSGTDFTFTISSLQPEDIATYYCKHHFGFPRTFGQGTKVEIKR
0.066 | 77 | 0.005 |  | H1050/L0395 (antibody, human IgG1, kappa, name in Kabat numbering, V domains shown) VH: QVQLVESGGGLVQPGGSLRLSCAASGFTFSEYYLSWVRQAPGKGLEWVGLIRNKDNYHTPEYSASVKGRFTISRDDSKNSLYLTMSDLKTEDTAVYYCARENHRYDVELAYWGQGTLVTVSS VL: DIQMTQSPSSLSASVGDRVTITCRASEIIYSYLAWYQQKPGKAPKLLIYKAKTHADGVPSRFSGSGSGTDFTFTISSLQPEDIATYYCKHHFGFPRTFGQGTKVEIKR
0.099 | 54 | 0.0076 |  | H1050/L0442 (antibody, human IgG1, kappa, name in Kabat numbering, V domains shown, L442 = L395 + S31E) VH: QVQLVESGGGLVQPGGSLRLSCAASGFTFSEYYLSWVRQAPGKGLEWVGLIRNKDNYHTPEYSASVKGRFTISRDDSKNSLYLTMSDLKTEDTAVYYCARENHRYDVELAYWGQGTLVTVSS VL: DIQMTQSPSSLSASVGDRVTITCRASEIIYEYLAWYQQKPGKAPKLLIYKAKTHADGVPSRFSGSGSGTDFTFTISSLQPEDIATYYCKHHFGFPRTFGQGTKVEIKR
